Test results published in the supplement of paper PMC10126150.
± gives the standard deviation of the averaged measurements.

tested on: ATP; assay: switch fluorescence ratio, 500 uM ATP over buffer (Cy3 cluster intensity, sum of 5 cycles each) (fold (ratio)); higher = stronger signal-on switching upon ATP binding; sequences stand for … in TCGTCGGCAGCGTCAGATGTGTATAAGAGACAGTTTTTTTTTTTTTTTTTTTTTTTTT…TC; settings: aptamer strand: ATP DNA aptamer (quencher-CACCTGGGGGAGTATTGCGGAGGAAGG + anchor), 100 nM annealed; ATP concentration: 500 uM
How it was run: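 Switching-strand clusters labelled with Cy3 on a modified Illumina MiSeq flow-cell were annealed to 100 nM quencher-labelled ATP aptamer, imaged in selection buffer, and re-imaged after 15 min with 500 uM ATP at 22 °C. This was done over five cycles with NaOH stripping and re-annealing in between. The fluorescence ratio is summed target-cycle over summed buffer-cycle Cy3 intensity per cluster, averaged per switch-domain sequence, excluding clusters outside 100-1000 RFU.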
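Further: ATP exposure 15 min at 22 °C before imaging.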

Row | Sequence | switch fluorescence ratio
1 | AAGCAAGGGA | 1.065 ± 0.01
2 | ACTAGGCAAT | 1.96 ± 0.27
3 | GTAAGTCATT | 1 ± 0.029
4 | CAAAAACGTT | 1.02 ± 0.024
5 | GCTTCCAGTT | 0.995 ± 0.035
6 | CGGTTTCAGT | 0.996 ± 0.023
7 | GTGCCAACGT | 0.981 ± 0.035
8 | CCTGGGTTTT | 1.06 ± 0.05
9 | TGCCAGTTGT | 1.006 ± 0.0076
10 | ATTCCTGGGC | 1.03 ± 0.027
11 | TGACGGATGG | 1.03 ± 0.051
12 | TTACATCGGA | 0.982 ± 0.03
13 | TTTTCTAGTA | 0.983 ± 0.038
14 | CATAGTTTGC | 0.9979 ± 0.0053
15 | GGAGACTTGA | 0.986 ± 0.024
16 | TATACGGGGG | 0.992 ± 0.049
17 | GGGTTAGAGT | 0.993 ± 0.025
18 | GTTCCTCGCT | 2.77 ± 0.33
19 | TTCTTTGACG | 1.09 ± 0.077
20 | TTTCGAGGGG | 1.02 ± 0.054
21 | ATGAATGAGT | 0.985 ± 0.016
22 | CATGGGCGGG | 0.983 ± 0.022
23 | GTCATGCGTG | 0.974 ± 0.044

Row | Sequence | switch fluorescence ratio
24 | GACAAAGCGG | 1.07 ± 0.041
25 | TTACTTGCGT | 1.06 ± 0.035
26 | TTGCCGATAC | 2.16 ± 0.12
27 | CTGGGGTTTC | 0.997 ± 0.026
28 | TAACTAAACT | 1.12 ± 0.08
29 | CATGTGACCA | 0.988 ± 0.038
30 | ATCATCTGAA | 0.987 ± 0.016
31 | AAGGGGACGG | 1 ± 0.03
32 | CAATACATAT | 1.07 ± 0.023
33 | CGGTCGGGGT | 0.995 ± 0.045
34 | GGGACAGGGG | 1.21 ± 0.35
35 | CCCTCACTTA | 1.08 ± 0.049
36 | AGGGGGCTAT | 1.02 ± 0.015
37 | GGACTTTTTG | 0.953 ± 0.045
38 | TAGTTGCTTG | 1.03 ± 0.054
39 | TTTTTCGGGT | 0.974 ± 0.018
40 | CCATACGTTG | 1.037 ± 0.0051
41 | ACTGAGGGGA | 1 ± 0.08
42 | TGGATTGTGT | 0.9735 ± 0.0032
43 | CGAGTTCCTT | 1.02 ± 0.014
44 | TAAGGGGTCG | 1.03 ± 0.046
45 | GCGTTGGGGA | 1.02 ± 0.015
46 | TGAAAGGTGG | 1.04 ± 0.018

Row | Sequence | switch fluorescence ratio
47 | ACTGAGTTGG | 0.986 ± 0.013
48 | TCAGGTGAAT | 1.32 ± 0.065
49 | AATTTGTAGT | 1.03 ± 0.025
50 | GGGGTGTTAT | 0.955 ± 0.037
51 | AGTATTTTGT | 0.974 ± 0.011
52 | ATGCATATCG | 1 ± 0.036
53 | CAAATCGTTT | 0.985 ± 0.038
54 | CATGGGTTAT | 0.981 ± 0.05
55 | TCACATGTCG | 1.02 ± 0.053
56 | TAGATGAGGC | 1.01 ± 0.061
57 | GCCCTCACGT | 1.08 ± 0.081
58 | GGAGTTAGGG | 0.977 ± 0.011
59 | TCTTATTCTG | 1.044 ± 0.0063
60 | CAGTTTTATT | 0.992 ± 0.022
61 | GACTGAGTTC | 0.972 ± 0.042
62 | TATGTGGGGG | 1 ± 0.016
63 | GTTTTATTCT | 1 ± 0.023
64 | AATCTGTGAA | 1 ± 0.012
65 | CAATTTTTCA | 1 ± 0.069
66 | GTGTTTATGA | 1.06 ± 0.053
67 | ATAGGATGCC | 0.999 ± 0.019
68 | ATAGATAGTG | 0.959 ± 0.015
69 | CAGGGTTATT | 0.995 ± 0.02

Row | Sequence | switch fluorescence ratio
70 | GGATTAGGTT | 1.01 ± 0.011
71 | TTCATAGGCT | 1.03 ± 0.025
72 | TACAATGCTT | 1.02 ± 0.017
73 | TCGTGTTCGG | 0.971 ± 0.029
74 | TTAGTGACA | 1.042 ± 0.0095
75 | TCCGGAATGG | 4.16 ± 0.47
76 | CGATTTTCGT | 0.998 ± 0.044
77 | GAGTAAGATC | 0.999 ± 0.048
78 | AGGGTGGGGC | 1.03 ± 0.065
79 | TGATGAATGA | 1.001 ± 0.0021
80 | CGGGGCACAG | 1.005 ± 0.0014
81 | TTTTGAACAA | 1.02 ± 0.039
82 | TCGCGGGGGG | 0.976 ± 0.034
83 | GAAGCGTCGT | 0.983 ± 0.063
84 | GATGAATGTT | 0.9766 ± 0.0041
85 | GACTAGTGGT | 1.01 ± 0.035
86 | TTCGGGGGTT | 1.01 ± 0.051
87 | AGTTGACGGG | 1.03 ± 0.0082
88 | CTGTCGTAAA | 1.07 ± 0.019
89 | ACGTCCTGCT | 1.07 ± 0.011
90 | GGGTAATAAG | 0.993 ± 0.035
91 | GATATTTGAT | 0.995 ± 0.042
92 | TTCGTAAGGG | 1.012 ± 0.01

Row | Sequence | switch fluorescence ratio
93 | TTATTTTGTT | 0.982 ± 0.034
94 | AGGGGCTTGT | 0.979 ± 0.024
95 | ACCCTCCGGC | 2.45 ± 0.026
96 | TCGTCTGGTT | 0.988 ± 0.03
97 | AATGCAACTT | 1.01 ± 0.032
98 | TGTTAGTCGT | 1.013 ± 0.0091
99 | GTTATGGGTA | 0.989 ± 0.025
100 | GGCATTACTA | 1.21 ± 0.022
101 | TCATGACGT | 0.9921 ± 0.0037
102 | TGAAGTCGGT | 0.9681 ± 0.0066
103 | AAGTTAGGGT | 0.999 ± 0.021
104 | TGAGGAAGGT | 1.016 ± 0.009
105 | AATGGCTCGC | 0.996 ± 0.061
106 | CGTTGGCATA | 1.149 ± 0.0065
107 | TTGTTGCGGC | 1.01 ± 0.042
108 | GTTTGGTTTT | 0.99 ± 0.014
109 | CATTTATTAG | 0.964 ± 0.0063
110 | TCGGGGGTTG | 0.996 ± 0.056
111 | TTAGGCGGGG | 1 ± 0.061
112 | AGGTTTGGGG | 1.04 ± 0.033
113 | GGGTACTTGT | 0.999 ± 0.022
114 | GCGGCAAGGG | 1.03 ± 0.035
115 | AAGGGTTCGG | 1.03 ± 0.026

Row | Sequence | switch fluorescence ratio
116 | TGCGCAAGGG | 1.27 ± 0.31
117 | AATACGGGCG | 1.008 ± 0.0056
118 | AGGTCAGTTA | 0.998 ± 0.028
119 | CTGTTGGAAT | 0.978 ± 0.025
120 | TTCCTTGGTT | 1.01 ± 0.012
121 | ATTGGCAGGC | 1.05 ± 0.057
122 | CCCACTACAT | 1.06 ± 0.035
123 | ATGAAAATGG | 0.971 ± 0.019
124 | TGAAAAACCG | 1.14 ± 0.12
125 | CGACGGTTGG | 0.967 ± 0.013
126 | ATGGGCGCGG | 0.9903 ± 0.0066
127 | GGGAGGGATA | 0.995 ± 0.02
128 | TAACATTTTT | 1 ± 0.022
129 | GACTGGTATG | 0.972 ± 0.011
130 | AAAATTGGTT | 1.009 ± 0.007
131 | AGAAGGTCGG | 1.01 ± 0.036
132 | TTTCTTATGA | 0.971 ± 0.025
133 | TCGTTTGTTT | 0.982 ± 0.04
134 | TGGATTTTTT | 0.996 ± 0.036
135 | TGGCGTTGTG | 0.9928 ± 0.0017
136 | AGGGAGGTGT | 0.997 ± 0.036
137 | GTGGGTACGG | 1 ± 0.028
138 | AGGGGTGGTT | 0.9581 ± 0.0017

Row | Sequence | switch fluorescence ratio
139 | AGTGATAGAT | 0.967 ± 0.023
140 | ATTGTTTGCA | 1.02 ± 0.056
141 | ATTTTAAGAG | 1.01 ± 0.02
142 | CGGGTTTACG | 1 ± 0.025
143 | TTTTAGACAA | 1.18 ± 0.17
144 | GAGTTCTAGG | 0.991 ± 0.038
145 | TCAAAAAATG | 1.01 ± 0.042
146 | TTTTGCGGAT | 1.04 ± 0.015
147 | CTAGGTTCGC | 1.01 ± 0.012
148 | TATAAGTTTT | 0.9823 ± 0.0096
149 | AACAGGCTGG | 1.01 ± 0.013
150 | ATGACCTTCA | 2.1 ± 0.078
151 | AGTCAATGAC | 0.968 ± 0.012
152 | TCGCGTGGTA | 0.989 ± 0.038
153 | CGGGCTATCC | 1.03 ± 0.03
154 | TAGGGGAGTA | 0.9792 ± 0.0068
155 | GACGGGTTTG | 0.9915 ± 0.0074
156 | TGGTTGGAGT | 1.006 ± 0.0035
157 | GGCTTAGACG | 0.959 ± 0.063
